From patent CN118307667A

Biological target: RSV A/B株的融合蛋白的融合前和融合后构象
Assay: ELISA, F protein coated 50 ng/well, anti-human IgG-Fc-HRP

B1: RSFP2B6抗体 (antibody, V domains shown)
VH: QVQLVQSGGALAQPGRSLRLSCTTSGFTFGDYAVNWVRQAPGKGLEWVGIVRTEPYGGTTEYSASVKGRFIISRDDSKGIAYLQMNSLKTEDTGVYYCSQPILNVDVWGQGTTVTVSS
VL: NFMLTQPHSVSESPGKTVTISCTRSSGSFGSDYVQWYQQRPGSAPNTVIYENNQRPSGVPDRFSGSIDSSSNSASLTISGLKTEDEADYYCQSYDDNTPWVFGGGTELTVL
  EC50: 0.292 to 0.603 mg/L
